# Results: publication PMC7399497, “The Dual PDZ Domain from Postsynaptic Density Protein 95 Forms a Scaffold with Peptide Ligand” (Biophysical Journal, 2020)
# Key:
# Test in all cases: ITC; 5 mM RRESEI in the syringe, PDZ1-2, PDZ1 or PDZ2 in the cell at nominally 0.13 mM; 25°C; 20 mM Tris-HCl, 150 mM NaCl pH 8.5; single class of sites; Kd and N could not be refined independently
# Settings in all cases: both partners purified
# PSD-95 PDZ2 domain = target: T1, PSD-95 PDZ2 domain (human, UniProt P78352 154-249)
# T1 construct: Gly-Pro left at the N-terminus after HRV 3C cleavage of the tag; PSD-95, human, PDZ2, residues 154-249 of UniProt P78352 (197-292 of P78352-2); Glutathione was not used in the purification of the single domains; source: E. coli BL21(DE3), purified (Ni-NTA, HRV 3C tag cleavage, negative Ni-NTA, Superdex 200 SEC); not shown: His6, N-terminal, cleaved
# T1 sequence (P78352 other isoform, or with tags, fused parts or gaps): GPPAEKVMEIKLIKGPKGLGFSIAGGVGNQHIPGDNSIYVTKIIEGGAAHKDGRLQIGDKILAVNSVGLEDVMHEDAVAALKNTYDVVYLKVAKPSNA
# PSD-95 PDZ1 domain = target: T2, PSD-95 PDZ1 domain (human, UniProt P78352 55-152)
# T2 construct: Gly-Pro left at the N-terminus after HRV 3C cleavage of the tag; PSD-95, human, PDZ1, residues 55-152 of UniProt P78352 (98-195 of P78352-2); Glutathione was not used in the purification of the single domains; source: E. coli BL21(DE3), purified (Ni-NTA, HRV 3C tag cleavage, negative Ni-NTA, Superdex 200 SEC); not shown: His6, N-terminal, cleaved
# T2 sequence (P78352 other isoform, or with tags, fused parts or gaps): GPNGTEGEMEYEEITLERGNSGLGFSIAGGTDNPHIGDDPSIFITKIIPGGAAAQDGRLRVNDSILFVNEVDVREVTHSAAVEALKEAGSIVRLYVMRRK
# [1] = target: T3, PSD-95 PDZ1-2 (dual PDZ domain of postsynaptic density protein 95) (human, UniProt P78352 55-249)
# T3 construct: Gly-Pro left at the N-terminus after HRV 3C cleavage of the tag; PSD-95 (disks large homolog 4, SAP-90), human, residues 55-249 of UniProt P78352 (98-292 of P78352-2); PDZ1, linker and PDZ2; No Cys residues in the construct; also called apo-PDZ1-2; PDZ1-2 double domain; source: E. coli BL21(DE3), purified (Ni-NTA, HRV 3C tag cleavage, negative Ni-NTA, Superdex 200 SEC); not shown: His6, …
# T3 sequence (P78352 other isoform, or with tags, fused parts or gaps): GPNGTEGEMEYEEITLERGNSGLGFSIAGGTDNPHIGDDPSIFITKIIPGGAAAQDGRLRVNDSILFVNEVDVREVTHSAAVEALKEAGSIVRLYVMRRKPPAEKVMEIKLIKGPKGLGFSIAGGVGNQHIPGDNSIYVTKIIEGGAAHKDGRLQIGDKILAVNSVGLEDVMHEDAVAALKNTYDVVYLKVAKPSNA
binder,measurement,setting,value
"RRESEI (C-terminal six residues (422-427) of the inwardly rectifying potassium channel Kir2.1; also called RRESEI ligand; ligand peptide; source: synthetic peptide, 98% purity; bought: Peptide Protein Research) [RRESEI peptide (last six residues, 422-427, of Kir2.1)]",Kd,PSD-95 PDZ2 domain,60 ± 2 µM
same,stoichiometry N,PSD-95 PDZ2 domain,0.19 ± 0.06
same,Kd,PSD-95 PDZ1 domain,6 ± 6 µM
same,stoichiometry N,PSD-95 PDZ1 domain,0.61 ± 0.08
same,Kd,[1],90 ± 9 µM
same,stoichiometry N,[1],0.2 ± 0.07
